Experimental data as given in patent US20150376265A1 (Genentech, published 2015).

Target: T1, gH/gL/gO on the surface of cells (HCMV, UniProt P12824 24-743; P16832 31-278; F5HGP1 32-472)
T1 construct: also called Complex II; cells expressing gH/gL/gO
Experiment: FACS on transfected cells, data not shown

T1 sequence (F5HGP1 32-472 limits assumed, one chain of several): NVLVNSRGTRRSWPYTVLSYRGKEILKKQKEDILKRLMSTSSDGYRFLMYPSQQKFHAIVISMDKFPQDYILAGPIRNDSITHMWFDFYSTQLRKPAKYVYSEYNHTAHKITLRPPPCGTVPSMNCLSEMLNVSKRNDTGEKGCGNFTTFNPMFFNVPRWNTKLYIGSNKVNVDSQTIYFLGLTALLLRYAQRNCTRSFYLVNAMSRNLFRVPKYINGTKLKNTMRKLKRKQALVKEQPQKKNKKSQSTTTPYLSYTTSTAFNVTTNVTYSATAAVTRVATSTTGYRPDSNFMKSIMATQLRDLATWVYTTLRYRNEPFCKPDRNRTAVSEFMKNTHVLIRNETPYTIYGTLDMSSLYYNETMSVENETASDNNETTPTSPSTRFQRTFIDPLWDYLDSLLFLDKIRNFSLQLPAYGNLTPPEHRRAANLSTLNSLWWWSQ

B1: hu8G8 (lambda4 8G8 graft and hu8G8.VH1) (antibody, V domains shown)
VH: EVQLVQSGAEVKKPGASVKVSCKASGYTFTNYGMNWVRQAPGQGLEWIGWINTYTGEPTYADDFKGRVTITRDTSTSTAYLELSSLRSEDTAVYYCARSWYYVSNYWYFDVWGQGTLVTVSS
VL: SVLTQSPSASASLGASVKLTCTLSSQHSTYTIEWYQQQPGKGPRYLMKLKKDGSHSTGDGIPDRFSGSSSGADRYLTISNLQSEDEADYYCGVGDTIKEQFVYVFGGGTKLTVLG
notes: also called hu8G8 with VH1; Humanized 8G8 with VH1
binding result: no binding
